Reference: paper PMC7351111, “WRNIP1 Is Recruited to DNA Interstrand Crosslinks and Promotes Repair” (Cell Reports, 2020)

Molecular target: T1, His-ubiquitin (UniProt P0CG48 1-76)
T1 construct: ubiquitin (monomer); also called recombinant ubiquitin; source: recombinant
Assay: pull-down; 2 ug Flag-HA-WRNIP1 or Flag-HA-WRNIP1-19R with 2 ug His-ubiquitin; 300 mM KCl, 40 mM Tris-HCl pH 8.0, 100 ug/ml BSA; 30 C for 1 h; captured on anti-HA Sepharose at 4 C; immunoblot against WRNIP1 and ubiquitin
Conditions: both partners purified

binding result: binds
B1: Flag-HA-WRNIP1 (purified from Sf9 cells) (natural protein, human, UniProt Q96S55 1-665, looked up)
chain: MEVSGPEDDPFLSQLHQVQCPVCQQMMPAAHINSHLDRCLLLHPAGHAEPAAGSHRAGERAKGPSPPGAKRRRLSESSALKQPATPTAAESSEGEGEEGDDGGETESRESYDAPPTPSGARLIPDFPVARSSSPGRKGSGKRPAAAAAAGSASPRSWDEAEAQEEEEAVGDGDGDGDADADGEDDPGHWDADAAEAATAFGASGGGRPHPRALAAEEIRQMLQGKPLADTMRPDTLQDYFGQSKAVGQDTLLRSLLETNEIPSLILWGPPGCGKTTLAHIIASNSKKHSIRFVTLSATNAKTNDVRDVIKQAQNEKSFFKRKTILFIDEIHRFNKSQQDTFLPHVECGTITLIGATTENPSFQVNAALLSRCRVIVLEKLPVEAMVTILMRAINSLGIHVLDSSRPTDPLSHSSNSSSEPAMFIEDKAVDTLAYLSDGDARAGLNGLQLAVLARLSSRKMFCKKSGQSYSPSRVLITENDVKEGLQRSHILYDRAGEEHYNCISALHKSMRGSDQNASLYWLARMLEGGEDPLYVARRLVRFASEDIGLADPSALTQAVAAYQGCHFIGMPECEVLLAQCVVYFARAPKSIEVYSAYNNVKACLRNHQGPLPPVPLHLRNAPTRLMKDLGYGKGYKYNPMYSEPVDQEYLPEELRGVDFFKQRRC
notes: WRNIP1, human; Purification as in Liang et al., 2016; also called wild-type WRNIP1; source: Sf9, purified
